{
  "source": "patent US12357582B2",
  "about": "“Hydrophobic ion pairing and flash nanoprecipitation for formation of controlled-release nanocarrier formulations” (The Trustees of Princeton University, priority 2017, dated 2025)",
  "key": {"[1]": {"experiment": "Particle size and polydispersity by dynamic light scattering", "type": "physicochemical", "settings": "LL37 pre-ion paired with SDS 1:1 charge ratio, PCL5k-b-PEG5k NPs"}, "[2]": {"experiment": "Encapsulation efficiency (ultrafiltration, BCA assay)", "type": "physicochemical", "settings": "LL37:SDS 1:1 PCL5k-b-PEG5k NPs"}},
  "data": [
    {"substance": "LL37: cationic antibiotic peptide, 1719 Da, sequence FKRIVQRIKDFLR (nanoparticle formulation; LL37) [reference compound]", "values": [
      {"measurement": "NP diameter", "setting": "[1]", "value": "~120", "unit": "nm"},
      {"measurement": "Encapsulation efficiency", "setting": "[2]", "value": "over 95%"}
    ]}
  ]
}
